Here are results for one protein from publication PMC3873549, “Plant Acyl-CoA:Lysophosphatidylcholine Acyltransferases (LPCATs) Have Different Specificities in Their Forward and Reverse Reactions” (The Journal of Biological Chemistry, 2013).

Substrate in the data set: CCCCCCCC/C=C\CCCCCCCC(=O)SCCNC(=O)CCNC(=O)[C@H](O)C(C)(C)COP(=O)(O)OP(=O)(O)OC[C@H]1O[C@@H](n2cnc3c(N)ncnc32)[C@H](O)[C@@H]1OP(=O)(O)O
Nature of the data set: cells, lysate or membranes. The format is cell-based, Arabidopsis thaliana. The note with it: acyl acceptor sn-1-18:1-LPC, pH 7.2, 30 °C, labelled compound.

What is called Km is the substrate concentration at which the rate is half of its maximum.

B1: AtLPCAT1 (Arabidopsis thaliana) (protein)
chain: MDMSSMAGSIGVSVAVLRFLLCFVATIPVSFACRIVPSRLGKHLYAAASGAFLSYLSFGFSSNLHFLVPMTIGYASMAIYRPKCGIITFFLGFAYLIGCHVFYMSGDAWKEGGIDSTGALMVLTLKVISCSMNYNDGMLKEEGLREAQKKNRLIQMPSLIEYFGYCLCCGSHFAGPVYEMKDYLEWTEGKGIWDTTEKRKKPSPYGATIRAILQAAICMALYLYLVPQYPLTRFTEPVYQEWGFLRKFSYQYMAGFTARWKYYFIWSISEASIIISGLGFSGWTDDASPKPKWDRAKNVDILGVELAKSAVQIPLVWNIQVSTWLRHYVYERLVQNGKKAGFFQLLATQTVSAVWHGLYPGYMMFFVQSALMIAGSRVIYRWQQAISPKMAMLRNIMVFINFLYTVLVLNYSAVGFMVLSLHETLTAYGSVYYIGTIIPVGLILLSYVVPAKPSRPKPRKEE
In the case of B1, the Km is listed as 18 µM.
